7 molecules from patent publication US20240239878A1 (SHANGHAI QILU PHARMACEUTICAL RESEARCH AND DEVELOPMENT CENTRE, published 2024) can be followed below.

The target of experiment [1] is T1, Cynomolgus monkey DLL3 on HEK293 cells (HEK293-cyno DLL3) (Cynomolgus monkey, UniProt Q9NYJ7 27-618 (human entry)).
T1 chain: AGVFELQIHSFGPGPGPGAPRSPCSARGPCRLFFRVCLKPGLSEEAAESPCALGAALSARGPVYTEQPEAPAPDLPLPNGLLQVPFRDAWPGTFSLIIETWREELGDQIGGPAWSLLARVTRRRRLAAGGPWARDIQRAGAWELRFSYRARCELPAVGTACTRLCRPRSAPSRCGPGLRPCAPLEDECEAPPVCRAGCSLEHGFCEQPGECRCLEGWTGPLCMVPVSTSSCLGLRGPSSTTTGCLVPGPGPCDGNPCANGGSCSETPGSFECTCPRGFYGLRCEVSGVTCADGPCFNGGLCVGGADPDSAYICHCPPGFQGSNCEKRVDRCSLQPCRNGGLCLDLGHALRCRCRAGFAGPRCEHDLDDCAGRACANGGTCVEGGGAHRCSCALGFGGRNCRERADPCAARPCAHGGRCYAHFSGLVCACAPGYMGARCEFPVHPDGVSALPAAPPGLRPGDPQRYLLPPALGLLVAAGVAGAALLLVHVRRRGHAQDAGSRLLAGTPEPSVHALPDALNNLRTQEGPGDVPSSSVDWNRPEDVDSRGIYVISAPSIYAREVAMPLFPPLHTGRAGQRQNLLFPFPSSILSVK
Description: flow cytometry, HEK293-cyno DLL3 cells. On the procedure:
Monoclonal selection was performed, and the expression level of DLL3 protein in the monoclonal cells were identified by flow cytometry. The culture was expanded and stored in storage for later use. SHP-77 and HEK293-cyno DLL3 cells were cultured. The culture medium for SHP-77 cells were RPMI1640+10% FBS, and the culture medium for HEK293 cyno DLL3 cells were DMEM+10% FBS+200 μg/ml Hygromycin. The cells were cultured in a T75 cell culture flask at a 37° ° C. in a 5% CO₂ incubator. When using cells, they are washed with sterile DPBS, digested with 0.25% trypsin EDTA for about 5 minutes, and then stopped with a complete medium.
(§1) The digested cells were centrifuged at 1000 rpm for 5 min at room temperature. The supernatant was discarded and the cells were resuspended in 100 μL of 1% BSA (in PBS). The cells were counted and adjusted to a cell density of 1E6/m. The dilute cells were seeded in a 96-well round-bottom culture plate (corning 3799), and centrifuged at 1500 rpm for 5 min at 4° C. The supernatant was discarded and the cells were stored at 4° C. until use. Antibody samples to be tested were diluted with 1% BSA (in PBS) at a starting concentration of 100 nM, downwards by a 10-fold gradient for 7 concentrations. The cells were resuspended with the diluted antibody at 100 μL/well and incubated for 1 hour at 4° C. The cells were centrifuged at 1500 rpm for 5 minutes at 4° C. and the supernatant was discarded. The cells were resuspended and washed with 160 μL of 1% BSA (in PBS), centrifuged at 1500 rpm for 5 minutes at 4° C. The supernatant was discarded. The secondary antibody (goat anti human IgG Fc PE) was diluted 1:200 with 1% BSA (in PBS) according to the manufacturer's instructions and the cells were resuspended with the diluted secondary antibody. 100 μL/well, and incubated for 0.5 h at 4° C. The cells were centrifuged at 1500 rpm for 5 minutes at 4° C. and the supernatant was discarded. The cells were resuspended and washed with 160 μL of 1% BSA (in PBS), centrifuged at 1500 rpm for 5 minutes at 4° C. The supernatant was discarded. The cells were resuspended in 100 μL of 1% BSA (in PBS), and filtered across a 300 mesh gauze. The mean fluorescence intensity of the PE channels was measured by flow cytometry.
On the technique in general: A flow cytometer gives signals particle by particle.

Experiment [2] deals with T1, Cynomolgus monkey DLL3 on HEK293 cells …. Description: flow cytometry, HEK293-cyno DLL3 cells. On the procedure: SHP-77 and HEK293-cyno DLL3 cells were cultured. The culture medium for SHP-77 cells were RPMI1640+10% FBS, and the culture medium for HEK293 cyno DLL3 cells were DMEM+10% FBS+200 μg/ml Hygromycin. The cells were cultured in a T75 cell culture flask at a 37° C. 5% CO₂ incubator. When using cells, they are washed with sterile DPBS, digested with 0.25% trypsin EDTA for about 5 minutes, and then stopped with a complete medium.
as §1, with “antibody,” for “antibody.”
The analyzed mean fluorescence intensity was imported into Graphpad to analyze the median-binding concentration (hereinafter referred to as EC50) of antibody and cell and the top mean fluorescence intensity (Top MFI).

Where two headings read alike, the source gives them in different places.

B1: DLL3-26 camelid-derived anti-DLL3 chimeric antibody (antibody, human IgG1, V domains shown)
VH: QVQLVESGGGSVQAGGSLRLSCAASGDIYSSSYVGWFRQAPGKEREGVAIIYTSGDSTYYANSVKGRFTISQDKAKKTLYLQMNSLKPEDTAMYYCAARFAIDNSNYWGQGTQVTVSS
In general, EC50 refers to the midpoint of the concentration-response curve. Turning to B1, in experiment [1], the EC50 was 0.439 nM and the “Top MFI” value came out at 450 MFI. For the same molecule, in experiment [2], the response was half-maximal at 0.54 nM (EC50) and the “Top MFI” value worked out at 336 MFI.

B2: hDLL3-26 camelid-derived humanized anti-DLL3 antibody (antibody, V domains shown)
VH: EVQLVESGGGLVQPGGSLRLSCAASGDIYSSSYVGWFRQAPGKEREGVAIIYTSGDSTYYADSVKGRFTISRDNSKNTLYLQMNSLRAEDTAVYYCAARFAIDNSNYWGQGTLVTVSS
As for B2, in experiment [2], the EC50 amounted to 2.24 nM and the “Top MFI” value amounted to 301 MFI.

B3: DLL3-3 camelid-derived anti-DLL3 chimeric antibody (antibody, human IgG1, V domains shown)
VH: DVQLVESGGGSVQAGGSLKLSCKSPTYTISSGYMGWFRQAPGKEREGVAAIYIGGSTTLYADSVKGRFTISADNAEKTVYLQMNTLKPEDSAMYYCAAQLRPNSAYHPLDGRKYNYWGQGTQVTVSS
As to B3, the EC50 came out at 0.025 nM in experiment [1] and 0.08 nM in experiment [2]. The “Top MFI” value in experiment [1] worked out at 438 MFI; in experiment [2], 379 MFI.

B4: hDLL3-3-1 camelid-derived humanized anti-DLL3 antibody (antibody, human IgG1, V domains shown)
VH: EVQLVESGGGLVQPGGSLRLSCAASTYTISSGYMGWFRQAPGKEREGVAAIYIGGSTTLYADSVKGRFTISRDNSKNTLYLQMNSLRAEDTAVYYCAAQLRPNSAYHPLDGRKYNYWGQGTLVTVSS
For B4, in experiment [2], the EC50 is 0.22 nM and the “Top MFI” value came to 346 MFI.

B5: hDLL3-3-2 camelid-derived humanized anti-DLL3 antibody (antibody, V domains shown)
VH: EVQLVESGGGLVQPGGSLRLSCKSPTYTISSGYMGWFRQAPGKEREGVAAIYIGGSTTLYADSVKGRFTISRDNSKNTLYLQMNSLRAEDTAVYYCAAQLRPNSAYHPLDGRKYNYWGQGTLVTVSS
Turning to B5, in experiment [2], the response was half-maximal at 0.15 nM (EC50) and the “Top MFI” value is 344 MFI.

B6: DLL3-122 camelid-derived anti-DLL3 chimeric antibody (antibody, human IgG1, V domains shown)
VH: QVQLVESGGGSVQAGGSLRLSCTASGDTYRSYCMGWFRKAPGKEREGVADIVSDGSTSYADSVKGRFTISKDNAKNTLYLQMNSLKPEDTAMYYCAVDRGGSGGYCYTGRYDYWGQGTQVTVSS
Turning to B6, the EC50 in experiment [1] came out at 0.415 nM; in experiment [2] it was 0.58 nM. In addition, the “Top MFI” value is 460 MFI in experiment [1] and 351 MFI in experiment [2].

B7: hDLL3-122 camelid-derived humanized anti-DLL3 antibody (antibody, V domains shown)
VH: EVQLVESGGGLVQPGGSLRLSCAASGDTYRSYCMGWFRQAPGKEREGVADIVSDGSTSYADSVKGRFTISRDNSKNTLYLQMNSLRAEDTAVYYCAVDRGGSGGYCYTGRYDYWGQGTLVTVSS
With B7, in experiment [2], the half-maximal effective concentration (EC50) worked out at 0.99 nM and the “Top MFI” value was 351 MFI.
